According to patent US20260014245A1:

Columns and labels:
[1] = target: MERS-CoV RBD (wild type, amino acids G372-L588, AviTag, Twin Strep tag, 6xHis) (MERS-CoV); assay: rabbit DPP4
[2] = target: DPP4/CD26 on human CD3 expressing T cells (human) (UniProt P27487); assay: flow cytometry of human PBMCs, MERS-RBD - AF488 against CD3 - PerCP-Cy5
Chain of DPP4/CD26 on human CD3 expressing T cells (human) (P27487 whole entry): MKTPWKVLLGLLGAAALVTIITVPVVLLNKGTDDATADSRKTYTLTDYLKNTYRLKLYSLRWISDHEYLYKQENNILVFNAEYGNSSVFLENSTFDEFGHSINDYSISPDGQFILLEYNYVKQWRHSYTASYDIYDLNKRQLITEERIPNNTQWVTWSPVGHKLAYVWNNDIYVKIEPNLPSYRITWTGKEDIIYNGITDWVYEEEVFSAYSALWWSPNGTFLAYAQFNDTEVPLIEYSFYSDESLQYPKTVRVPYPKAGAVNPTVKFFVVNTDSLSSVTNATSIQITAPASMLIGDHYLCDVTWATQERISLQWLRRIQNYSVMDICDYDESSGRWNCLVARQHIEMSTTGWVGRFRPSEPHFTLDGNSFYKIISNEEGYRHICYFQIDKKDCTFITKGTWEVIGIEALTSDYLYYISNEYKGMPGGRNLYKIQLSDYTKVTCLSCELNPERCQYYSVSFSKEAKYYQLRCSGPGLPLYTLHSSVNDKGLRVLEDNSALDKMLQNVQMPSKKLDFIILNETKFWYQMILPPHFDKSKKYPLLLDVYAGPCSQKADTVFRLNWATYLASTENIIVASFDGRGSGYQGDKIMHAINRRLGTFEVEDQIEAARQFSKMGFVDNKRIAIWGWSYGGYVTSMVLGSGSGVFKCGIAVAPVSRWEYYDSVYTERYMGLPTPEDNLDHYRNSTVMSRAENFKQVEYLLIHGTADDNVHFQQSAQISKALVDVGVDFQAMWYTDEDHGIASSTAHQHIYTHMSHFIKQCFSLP

recombinant rabbit DPP4 with a C-terminal 6xHis-tag (rbDPP4-His) (from UniProt A0A5F9CKR3 29-732) (receptor)
Kd [1]: 34.3 nM

MERS-CoV RBD (wild type, amino acids G372-L588, AviTag, Twin Strep tag, 6xHis) (ligand; other documents disagree on this pair)
CD3+ MERS-RBD+ quadrant frequency (percent of gated DAPI- lymphocytes) [2]: 4.92
